Paper PMC12102759

Molecular target: T1, SARS‐CoV‐2 NSP3 SUD‐M domain (1356–1493), tag cleaved, for FP, P0DTD1
T1 chain: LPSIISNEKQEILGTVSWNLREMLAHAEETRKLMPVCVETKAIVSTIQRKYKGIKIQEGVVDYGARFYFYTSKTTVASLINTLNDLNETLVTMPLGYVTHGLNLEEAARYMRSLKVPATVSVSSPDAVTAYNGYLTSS
Test: fluorescence polarization (FP)-based affinity measurement
Conditions: chain shown with the change;; read off a plot

With QFTEEDLMFVLYGVTPY [PRDM14 wt peptide 196-211 H203M] the ratio to parent was 5.6 fold.

Binder QFTEEELHFVLYGVTPY [PRDM14 wt peptide 196-211 D201E] has a ratio to parent of 14 fold.
